Measurements from publication PMC4749557.

Key:
[1] = biological target: Mb(hPRDM14_S14) displayed on the yeast surface; experiment: yeast surface display; KD of monobody clones displayed on yeast for hPRDM14
[2] = biological target: 12 clones that bound to human PRDM14 (monobodies; the members other than Mb(S4) and Mb(S14) are not given); experiment: as above
[3] = biological target: Mb(hPRDM14_S14) displayed on the yeast surface; experiment: yeast surface display; monobodies on the yeast surface with 50 nM of hPRDM14 or a homologue

B1: human PRDM14 (residues 238–487) (domain or fragment)
chain: LPQTLDKDSLQLPEGLCLMQTVFGEVPHFGVFCSSFIAKGVRFGPFQGKVVNASEVKTYGDNSVMWEIFEDGHLSHFIDGKGGTGNWMSYVNCARFPKEQNLVAVQCQGHIFYESCKEIHQNQELLVWYGDCYEKFLDIPVSLQVTEPGKQPSGPSEESAEGYRCERCGKVFTYKYYRDKHLKYTPCVDKGDRKFPCSLCKRSFEKRDRLRIHILHVHEKHRPHKCSTCGKCFSQSSSLNKHMRVHSGDR
modifications: biotin (biotin-acceptor tag)
For B1, the Kd [1] was < 100 nM, the Kd [2] was < 100 nM and the fold stronger binding than hPRDM6 and hPRDM12 [3] was > 5 fold.
